Test results published in patent US20020119121A1, “Compositions and methods for inducing specific cytolytic T cell responses” (priority 2000, published 2002).

What was measured:
[1] = system: class I molecules, TAP transporters, PA28, immunoproteasomes in monocytes/DC; assay: Expression of class I molecules, TAP transporters, PA28 and immunoproteasomes by flow cytometry and immunoprecipitation; format: cell-based, human; conditions: treatment of immature DC
From the text: To determine if the differences observed between DC treated with LPS, TNF-α, or CD40L in inducing CTL activity of CD8^+ T cells were due to differences in antigen processing and presentation capacity of monocytes, immature DC, and mature DC, the expression levels of class I molecules, TAP transporters, PA28 (an immunoproteasome regulator), and immunoproteasomes were examined by flow cytometry (FACScan, Benton Dickenson, Milano, Italy) and immunoprecipitation with appropriate antibodies. […] The level of expression of class I molecules was further increased by two fold upon treatment with LPS, CD40L, or TNF-α.

[2] = system: 51Cr-labeled recipient LB; assay: Inhibition of LB-directed cytotoxicity by granule exocytosis pathway blockers; conditions: CMA 1, 10, 100 nM/L for 2 h or SrCl2 5, 25, 50 mM/L for 18 h; one mean given for either reagent; FIG. 5 E:T 5:1
From the text: Cytolytic activity of a CTL refers to the secretion of the contents of secretory granules into the immediate vicinity of the target cell to which it attaches. The granules contain perforins, various lysosomal enzymes, and calcium binding proteins that destroy the target cell.

[3] = system: JY (A2+) and 221 (A2-) 51Cr-labeled target cells
[4] = system: JY (A2+) and 221 (A2-) 51Cr-labeled target cells; assay: 51Cr-release assay of HLA-A2 specific CTL activity induced in purified CD8+ TL by dendritic cells

For tumor necrosis factor-α [TNF-α], the “further increase of expression of class I molecules” value (from here on “further increase”) [1] was “two fold”.

C/C=C/[C@H]1O[C@@](O)([C@@H](C)[C@H](O)[C@H](C)[C@H]2OC(=O)/C(OC)=C/C(C)=C/[C@@H](C)[C@@H](O)[C@@H](CC)[C@@H](O)[C@H](C)C/C(C)=C/C=C/[C@@H]2OC)C[C@@H](O[C@H]2C[C@@H](O)[C@H](OC(N)=O)[C@@H](C)O2)[C@@H]1C [CMA, concanamycin A] was tested, and the “mean inhibition of LB-directed cytotoxicity” value [2] was 87%.

With IL-12: cytokine interleukin-12 the “substitution for CD40L in inducing cytotoxic activity” value [3] was “two of the four”.

With “IL-4: lymphokine added to the CTL induction culture” the “effect of addition on cytotoxic activity” value [3] was “no effect”.

lipopolysaccharide [LPS] was tested, and the “further increase” value [1] was “two fold” and the “induction of cytotoxic activity from purified CD8+ T cells by treated DC” value ([4]; DC treated with LPS 20 ng/ml, TNF-α 20 ng/ml (40 h) or irradiated CD40L-transfected cells, FIG. 1A) was “only CD40L treated DC were capable of inducing cytotoxic activity”.

With IL-7: cytokine interleukin-7 the “effect on cytotoxic activity induced by immature DC” value [3] was “no effect” and the “enhancement of cytotoxic activity” value [3] was “approximately three fold”.

For “IL-6: lymphokine added to the CTL induction culture”, the “effect of addition on cytotoxic activity” value [3] was “no effect”.

B1: CD40L: CD40 Ligand, supplied as irradiated CD40L-transfected cells added to immature DC; dendritic cell maturation factor (protein, UniProt P29965 1-261, looked up)
chain: MIETYNQTSPRSAATGLPISMKIFMYLLTVFLITQMIGSALFAVYLHRRLDKIEDERNLHEDFVFMKTIQRCNTGERSLSLLNCEEIKSQFEGFVKDIMLNKEETKKENSFEMQKGDQNPQIAAHVISEASSKTTSVLQWAEKGYYTMSNNLVTLENGKQLTVKRQGLYYIYAQVTFCSNREASSQAPFIASLCLKSPGRFERILLRAANTHSSAKPCGQQSIHLGGVFELQPGASVFVNVTDPSQVSHGTGFTSFGLLKL
modifications: full-length expressed on irradiated transfected cells
notes: CD40 Ligand, supplied as irradiated CD40L-transfected cells added to immature DC; dendritic cell maturation factor
With B1 the “further increase” value [1] was “two fold” and the “CD8+ cell populations in which CTL activity was detected” value ([4]; CD40L-treated DC, four CD8+ populations tested) was “three of the four”.
